In publication doi:10.1101/2025.10.03.680336 (bioRxiv, 2025):
Values belong to the binder of their own block, whether it stands above or below them.

How the values were obtained:
crystal structure = target: the molecule itself; assay: crystal structure
[1] = target: T1, NG-fusion of PReMΔH1 (Cnn 462-608) (Drosophila melanogaster, UniProt P54623-2 462-608); assay: fluorescence microscopy of networks formed on mixing purified proteins
T1 sequence (looked up): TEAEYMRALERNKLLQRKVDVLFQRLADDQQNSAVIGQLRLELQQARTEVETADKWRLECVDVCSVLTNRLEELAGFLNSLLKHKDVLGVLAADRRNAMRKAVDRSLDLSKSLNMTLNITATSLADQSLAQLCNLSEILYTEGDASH

[2] = target: T2, NG-CDK5RAP2-PReM (CDK5RAP2 residues 535-639) (human, UniProt Q96SN8 535-639); assay: as above
T2 sequence (looked up): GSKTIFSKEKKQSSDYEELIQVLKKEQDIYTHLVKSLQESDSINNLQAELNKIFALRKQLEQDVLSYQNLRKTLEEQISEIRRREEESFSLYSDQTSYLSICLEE

[3] = target: T3, full length SPD-5-GFP (C. elegans), P91349; assay: mass photometry; settings: remark: other sources report otherwise
T3 chain: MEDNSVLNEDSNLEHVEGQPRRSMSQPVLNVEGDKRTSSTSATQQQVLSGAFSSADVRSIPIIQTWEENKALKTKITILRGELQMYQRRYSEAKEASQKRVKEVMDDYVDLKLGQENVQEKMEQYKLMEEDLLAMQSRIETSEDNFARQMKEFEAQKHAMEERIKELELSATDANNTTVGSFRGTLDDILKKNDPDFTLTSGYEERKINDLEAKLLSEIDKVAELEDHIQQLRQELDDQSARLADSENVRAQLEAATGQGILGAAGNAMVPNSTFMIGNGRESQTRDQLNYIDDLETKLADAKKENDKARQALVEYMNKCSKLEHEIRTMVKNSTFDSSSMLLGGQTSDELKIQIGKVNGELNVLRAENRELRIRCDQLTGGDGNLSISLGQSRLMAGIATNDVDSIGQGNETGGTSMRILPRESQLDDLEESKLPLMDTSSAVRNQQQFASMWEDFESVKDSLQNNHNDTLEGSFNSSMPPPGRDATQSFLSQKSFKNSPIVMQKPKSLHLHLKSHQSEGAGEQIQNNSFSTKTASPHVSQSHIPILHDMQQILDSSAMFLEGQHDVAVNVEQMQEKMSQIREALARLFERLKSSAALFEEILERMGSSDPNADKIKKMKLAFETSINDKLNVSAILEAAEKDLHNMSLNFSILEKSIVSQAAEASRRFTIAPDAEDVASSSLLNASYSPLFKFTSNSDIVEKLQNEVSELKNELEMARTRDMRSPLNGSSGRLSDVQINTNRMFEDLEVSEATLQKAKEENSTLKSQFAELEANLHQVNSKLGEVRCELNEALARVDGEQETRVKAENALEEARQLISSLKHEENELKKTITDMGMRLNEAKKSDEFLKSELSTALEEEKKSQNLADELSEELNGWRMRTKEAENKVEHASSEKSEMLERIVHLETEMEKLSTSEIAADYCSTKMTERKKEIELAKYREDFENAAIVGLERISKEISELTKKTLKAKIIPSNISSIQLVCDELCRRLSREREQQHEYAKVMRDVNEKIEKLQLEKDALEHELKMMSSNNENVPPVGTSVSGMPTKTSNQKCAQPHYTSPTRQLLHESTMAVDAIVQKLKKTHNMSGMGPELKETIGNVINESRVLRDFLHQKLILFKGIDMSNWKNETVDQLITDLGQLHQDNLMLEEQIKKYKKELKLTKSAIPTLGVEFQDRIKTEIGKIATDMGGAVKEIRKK

SEC-MALS = target: the molecule itself; assay: SEC-MALS
mass photometry = target: the molecule itself; assay: mass photometry

B1: Cnn 490-579 2A mutant (domain or fragment, Drosophila melanogaster, UniProt P54623-2 490-579, looked up)
chain: DQQNSAVIGQLRLELQQARTEVETADKWRLECVDVCSVLTNRLEELAGFLNSLLKHKDVLGVLAADRRNAMRKAVDRALDLAKSLNMTLN
- binding result (crystal structure): binds

- binding result [1]: binds
- binding result [2]: binds
B2: human CDK5RAP2 CM2 (residues 1812-1893) (domain or fragment, UniProt Q96SN8 1812-1893, looked up)
chain: PLHCEQIGEMKAEVTKLHKKLFEQEKKLQNTMKLLQLSKRQEKVIFDQLVVTHKILRKARGNLELRPGGAHPGTCSPSRPGS

- stoichiometry N [3]: 2
B3: full length SPD-5-GFP, P91349 1-1198 (natural protein)
chain: T3 chain

B4: MBP-fusion of PReM domain construct Cnn 462-608 (domain or fragment, Drosophila melanogaster, UniProt P54623-2 462-608, looked up)
chain: T1 sequence (looked up)
- stoichiometry N (SEC-MALS): 2

B5: full length Cnn-GFP (natural protein, Drosophila melanogaster, UniProt P54623-2 1-1148, looked up)
chain: MDQSKQVLRDYCGDGNGTCASSLKEITLIETVTSFLEENGAAEIDRRVLRKLAEALSKSIDDTSPGALQDVTMENSYASFDVPRPPGGGNSPLPSQGRSVRELEEQMSALRKENFNLKLRIYFLEEGQPGARADSSTESLSKQLIDAKIEIATLRKTVDVKMELLKDAARAISHHEELQRKADIDSQAIIDELQEQIHAYQMAESGGQPVENIAKTRKMLRLESEVQRLEEELVNIEARNVAARNELEFMLAERLESLTACEGKIQELAIKNSELVERLEKETASAESSNANRDLGAQLADKICELQEAQEKLKERERIHEQACRTIQKLMQKLSSQEKEIKKLNQENEQSANKENDCAKTVISPSSSGRSMSDNEASSQEMSTNLRVRYELKINEQEEKIKQLQTEVKKKTANLQNLVNKELWEKNREVERLTKLLANQQKTLPQISEESAGEADLQQSFTEAEYMRALERNKLLQRKVDVLFQRLADDQQNSAVIGQLRLELQQARTEVETADKWRLECVDVCSVLTNRLEELAGFLNSLLKHKDVLGVLAADRRNAMRKAVDRSLDLSKSLNMTLNITATSLADQSLAQLCNLSEILYTEGDASHKTFNSHEELHAATSMAPTVENLKAENKALKKELEKRRSSEGQRKERRSLPLPSQQFDNQSESEAWSEPDRKVSLARIGLDETSNSLAAPEQAISESESEGRTCATRQDRNRNSERIAQLEEQIAQKDERMLNVQCQMVELDNRYKQEQLRCLDITQQLEQLRAINEALTADLHAIGSHEEERMVELQRQLELKNQQIDQLKLAHSTLTADSQITEMELQALQQQMQEIEQLHADSVETLQSQLQKLKLDAVQQLEEHERLHREALERDWVALTTYQEQAQQLLELQRSLDYHQENEKELKQTLVENELATRALKKQLDESTLQASKAVMERTKAYNDKLQLEKRSEELRLQLEALKEEHQKLLQKRSNSSDVSQSGYTSEEVAVPMGPPSGQATTCKQAAAAVLGQRVNTSSPDLGIESDAGRISSVEVSNAQRAMLKTVEMKTEGSASPKAKSEESTSPDSKSNVATGAATVHDCAKVDLENAELRRKLIRTKRAFEDTYEKLRMANKAKAQVEKDIKNQILKTHNVLRNVRSNMENEL
- stoichiometry N (mass photometry): 2

B6: MBP-fusion of PReM domain construct Cnn 490-608 (domain or fragment, Drosophila melanogaster, UniProt P54623-2 490-608, looked up)
chain: DQQNSAVIGQLRLELQQARTEVETADKWRLECVDVCSVLTNRLEELAGFLNSLLKHKDVLGVLAADRRNAMRKAVDRSLDLSKSLNMTLNITATSLADQSLAQLCNLSEILYTEGDASH
- stoichiometry N (SEC-MALS): 2
